Residue numbers refer to the chain shown, from its start.

The target of experiment [1] is T1, α-IGF1R heavy-LgBiT (SEQ ID NO: 116).
T1 construct: VH-CH1-linker-LgBiT; germline VH3-23*01
The experiment is described as follows: NanoBiT, HC-LgBiT:LC-SmBiT:competing LC 1:1:1; competing lambda LC m54 (SEQ ID NO: 145).

Experiment [2] has the same target. Kind of experiment: NanoBiT, HC-LgBiT:LC-SmBiT:competing LC 1:1:1; competing lambda LC m60 (SEQ ID NO: 151).
For experiment [3] the target is unchanged. Kind of experiment: NanoBiT, HC-LgBiT:LC-SmBiT:competing LC 1:1:1; competing lambda LC m66 (SEQ ID NO: 157).
For experiment [4] the target is unchanged. The experiment is described as follows: NanoBiT, HC-LgBiT:LC-SmBiT:competing LC 1:1:1; competing lambda LC m69 (SEQ ID NO: 160).
Experiment [5] has the same target. Kind of experiment: NanoBiT, HC-LgBiT:LC-SmBiT:competing LC 1:1:1; competing lambda LC m72 (SEQ ID NO: 163).
In experiment [6] the target is T2, α-IL6R heavy-LgBiT (SEQ ID NO: 125).
T2 construct: VH-CH1-linker-LgBiT; germline VH3-9*01
The experiment is described as follows: NanoBiT, HC-LgBiT:LC-SmBiT:competing LC 1:1:1; competing lambda LC m45 (SEQ ID NO: 136).

Experiment [7] has the same target. Kind of experiment: NanoBiT, HC-LgBiT:LC-SmBiT:competing LC 1:1:1; competing lambda LC m48 (SEQ ID NO: 139).
Experiment [8] shares this target. Kind of experiment: NanoBiT, HC-LgBiT:LC-SmBiT:competing LC 1:1:1; competing lambda LC m54 (SEQ ID NO: 145).
For experiment [9] the target is unchanged. The experiment is described as follows: NanoBiT, HC-LgBiT:LC-SmBiT:competing LC 1:1:1; competing lambda LC m63 (SEQ ID NO: 154).
Experiment [10] shares this target. Kind of experiment: NanoBiT, HC-LgBiT:LC-SmBiT:competing LC 1:1:1; competing lambda LC m66 (SEQ ID NO: 157).
For experiment [11], the target named is T3, α-CD221 heavy-LgBiT (SEQ ID NO: 134).
T3 construct: VH-CH1-linker-LgBiT; germline VH1-69*01
The experiment is described as follows: NanoBiT, HC-LgBiT:LC-SmBiT:competing LC 1:1:1; competing kappa LC m15 (SEQ ID NO: 106).

Experiment [12] has the same target. The experiment is described as follows: NanoBiT, HC-LgBiT:LC-SmBiT:competing LC 1:1:1; competing kappa LC m21 (SEQ ID NO: 112).
Experiment [13] has the same target. The experiment is described as follows: NanoBiT, HC-LgBiT:LC-SmBiT:competing LC 1:1:1; competing kappa LC m33 (SEQ ID NO: 124).
Experiment [14] shares this target. Kind of experiment: NanoBiT, HC-LgBiT:LC-SmBiT:competing LC 1:1:1; competing kappa LC m42 (SEQ ID NO: 133).
The target in experiment [15] is T4, α-death receptor 5 heavy-LgBiT (SEQ ID NO: 137).
T4 construct: VH-CH1-linker-LgBiT; germline VH3-20*01
Kind of experiment: NanoBiT, HC-LgBiT:LC-SmBiT:competing LC 1:1:1; competing kappa LC m12 (SEQ ID NO: 103).

Experiment [16] addresses T4, α-death receptor 5 heavy-LgBiT (SEQ ID …). Kind of experiment: NanoBiT, HC-LgBiT:LC-SmBiT:competing LC 1:1:1; competing kappa LC m18 (SEQ ID NO: 109).
Experiment [17] has the same target. The experiment is described as follows: NanoBiT, HC-LgBiT:LC-SmBiT:competing LC 1:1:1; competing kappa LC m33 (SEQ ID NO: 124).
For experiment [18] the target is unchanged. The experiment is described as follows: NanoBiT, HC-LgBiT:LC-SmBiT:competing LC 1:1:1; competing kappa LC m36 (SEQ ID NO: 127).
Experiment [19] concerns the target T5, α-IGF1R heavy-LgBiT (SEQ ID NO: 119).
T5 construct: VH-CH1-linker-LgBiT; germline VH3-21*01
The experiment is described as follows: NanoBiT, HC-LgBiT:LC-SmBiT:competing LC 1:1:1; competing lambda LC m51 (SEQ ID NO: 142).

For experiment [20] the target is unchanged. Kind of experiment: NanoBiT, HC-LgBiT:LC-SmBiT:competing LC 1:1:1; competing lambda LC m63 (SEQ ID NO: 154).
For experiment [21] the target is unchanged. The experiment is described as follows: NanoBiT, HC-LgBiT:LC-SmBiT:competing LC 1:1:1; competing lambda LC m69 (SEQ ID NO: 160).
Experiment [22] has the same target. Kind of experiment: NanoBiT, HC-LgBiT:LC-SmBiT:competing LC 1:1:1; competing lambda LC m72 (SEQ ID NO: 163).
The target of experiment [23] is T6, α-IFN heavy-LgBiT (SEQ ID NO: 107).
T6 construct: VH-CH1-linker-LgBiT; germline VH5-51*01
Kind of experiment: NanoBiT, HC-LgBiT:LC-SmBiT:competing LC 1:1:1; competing lambda LC m48 (SEQ ID NO: 139).

Experiment [24] shares this target. The experiment is described as follows: NanoBiT, HC-LgBiT:LC-SmBiT:competing LC 1:1:1; competing lambda LC m69 (SEQ ID NO: 160).
Experiment [25] shares this target. Kind of experiment: NanoBiT, HC-LgBiT:LC-SmBiT:competing LC 1:1:1; competing lambda LC m72 (SEQ ID NO: 163).
For experiment [26], the target named is T7, α-neuropilin 1 heavy-LgBiT (SEQ ID NO: 131).
T7 construct: VH-CH1-linker-LgBiT; germline VH3-66*01
The experiment is described as follows: NanoBiT, HC-LgBiT:LC-SmBiT:competing LC 1:1:1; competing lambda LC m45 (SEQ ID NO: 136).

The target in experiment [27] is T7, α-neuropilin 1 heavy-LgBiT (SEQ ID NO: …). Kind of experiment: NanoBiT, HC-LgBiT:LC-SmBiT:competing LC 1:1:1; competing lambda LC m48 (SEQ ID NO: 139).
For experiment [28] the target is unchanged. The experiment is described as follows: NanoBiT, HC-LgBiT:LC-SmBiT:competing LC 1:1:1; competing lambda LC m51 (SEQ ID NO: 142).
Experiment [29] shares this target. The experiment is described as follows: NanoBiT, HC-LgBiT:LC-SmBiT:competing LC 1:1:1; competing lambda LC m54 (SEQ ID NO: 145).
For experiment [30] the target is unchanged. Kind of experiment: NanoBiT, HC-LgBiT:LC-SmBiT:competing LC 1:1:1; competing lambda LC m63 (SEQ ID NO: 154).
Experiment [31] shares this target. The experiment is described as follows: NanoBiT, HC-LgBiT:LC-SmBiT:competing LC 1:1:1; competing lambda LC m66 (SEQ ID NO: 157).
Experiment [32] shares this target. The experiment is described as follows: NanoBiT, HC-LgBiT:LC-SmBiT:competing LC 1:1:1; competing lambda LC m69 (SEQ ID NO: 160).
Experiment [33] shares this target. The experiment is described as follows: NanoBiT, HC-LgBiT:LC-SmBiT:competing LC 1:1:1; competing lambda LC m72 (SEQ ID NO: 163).

B1: α-IGF1R light-SmBiT (SEQ ID NO: 117) (other)
light: DIQMTQSPSSLSASLGDRVTITCRASQGISSYLAWYQQKPGKAPKLLIYAKSTLQSGVPSRFSGSGSGTDFTLTISSLQPEDSATYYCQQYWTFPLTFGGGTKVEIKRTVAAPSVFIFPPSDEQLKSGTASVVCLLNNFYPREAKVQWKVDNALQSGNSQESVTEQDSKDSTYSLSSTLTLSKADYEKHKVYACEVTHQGLSSPVTKSFNRGECGSSGGGGSGGGGSSGGVTGYRLFEEIL
notes: kappa light chain-linker-SmBiT; germline Vk1-27*01
As for B1, the Percent pairing in experiment [1] came out at 84%; in experiment [2], 81%; in [3], 95%; in [4], 100%; in experiment [5] it was 96%.

B2: α-IL6R light-SmBiT (SEQ ID NO: 126) (other)
light: DIQMTQSPSSVSASVGDRVTITCRASQGISSWLAWYQQKPGKAPKLLIYGASSLESGVPSRFSGSGSGTDFTLTISSLQPEDFASYYCQQANSFPYTFGQGTKLEIKRTVAAPSVFIFPPSDEQLKSGTASVVCLLNNFYPREAKVQWKVDNALQSGNSQESVTEQDSKDSTYSLSSTLTLSKADYEKHKVYACEVTHQGLSSPVTKSFNRGECGSSGGGGSGGGGSSGGVTGYRLFEEIL
notes: kappa light chain-linker-SmBiT; germline Vk1-12*01
As for B2, the Percent pairing turned out to be 100% in experiment [6]; 99% in experiment [7]; 100% in experiment [8]; 84% in [9]; 100% in experiment [10].

B3: α-CD221 light-SmBiT (SEQ ID NO: 135) (other)
light: SSELTQDPAVSVALGQTVRITCQGDSLRSYYATWYQQKPGQAPILVIYGENKRPSGIPDRFSGSSSGNTASLTITGAQAEDEADYYCKSRDGSGQHLVFGGGTKLTVLGQPKANPTVTLFPPSSEELQANKATLVCLISDFYPGAVTVAWKADGSPVKAGVETTKPSKQSNNKYAASSYLSLTPEQWKSHRSYSCQVTHEGSTVEKTVAPTECSGSSGGGGSGGGGSSGGVTGYRLFEEIL
notes: lambda light chain-linker-SmBiT; germline Vl3-19*01
Turning to B3, the Percent pairing is 96% in experiment [11], 95% in [12], 100% in experiment [13] and 100% in [14].

B4: α-death receptor 5 light-SmBiT (SEQ ID NO: 138) (other)
light: B3 light with Q23S, T33S, I44V, E50A, K52N, K88N, R90A, G92S, Q95N, L97V
notes: as for B3
Consider B4, for which the Percent pairing in experiment [15] amounted to 100%; in experiment [16], 100%; in experiment [17], 100%; in experiment [18] it was 95%.

B5: α-IGF1R light-SmBiT (SEQ ID NO: 120) (other)
light: EIVLTQSPGTLSVSPGERATLSCRASQSIGSSLHWYQQKPGQAPRLLIKYASQSLSGIPDRFSGSGSGTDFTLTISRLEPEDFAVYYCHQSSRLPHTFGQGTKVEIKRTVAAPSVFIFPPSDEQLKSGTASVVCLLNNFYPREAKVQWKVDNALQSGNSQESVTEQDSKDSTYSLSSTLTLSKADYEKHKVYACEVTHQGLSSPVTKSFNRGECGSSGGGGSGGGGSSGGVTGYRLFEEIL
notes: kappa light chain-linker-SmBiT; germline Vk3-20*01
B5: the Percent pairing in experiment [19] worked out at 95%; in experiment [20], 99%; in experiment [21] it was 100%; in experiment [22], 100%.

B6: α-IFN light-SmBiT (SEQ ID NO: 108) (other)
light: EIVLTQSPGTLSLSPGERATLSCRASQSVSSSFFAWYQQKPGQAPRLLIYGASSRATGIPDRLSGSGSGTDFTLTITRLEPEDFAVYYCQQYDSSAITFGQGTRLEIKRTVAAPSVFIFPPSDEQLKSGTASVVCLLNNFYPREAKVQWKVDNALQSGNSQESVTEQDSKDSTYSLSSTLTLSKADYEKHKVYACEVTHQGLSSPVTKSFNRGECGSSGGGGSGGGGSSGGVTGYRLFEEIL
notes: as for B5
On to B6, for which the results for the Percent pairing in experiment [23], in [24] and in [25] were 100%, 80% and 100%, respectively.

B7: α-neuropilin 1 light-SmBiT (SEQ ID NO: 132) (other)
light: DIQMTQSPSSLSASVGDRVTITCRASQYFSSYLAWYQQKPGKAPKLLIYGASSRASGVPSRFSGSGSGTDFTLTISSLQPEDFATYYCQQYLGSPPTFGQGTKVEIKRTVAAPSVFIFPPSDEQLKSGTASVVCLLNNFYPREAKVQWKVDNALQSGNSQESVTEQDSKDSTYSLSSTLTLSKADYEKHKVYACEVTHQGLSSPVTKSFNRGECGSSGGGGSGGGGSSGGVTGYRLFEEIL
notes: kappa light chain-linker-SmBiT; germline Vk1-39*01
For the molecule B7, the Percent pairing is 100% in experiment [26]; 100% in [27]; 84% in experiment [28]; 100% in experiment [29]; 100% in experiment [30]; 100% in [31]. Further, the Percent pairing in experiment [32] and in experiment [33] was 100% throughout.

These data come from patent publication US20230272119A1 (MARENGO THERAPEUTICS, published 2023).
